Laboratory results taken from patent US20130052162A1, “BOOSTING IMMUNE DEFENSE BY UPREGULATING CCAAT/ENHANCER BINDING PROTEIN EPSILON” (CEDARS-SINAI MEDICAL CENTER, priority 2010, published 2013).
“Also recorded” adds a separate entry of the source.

B1: IFN-γ: recombinant murine IFN-γ (Shenandoah Biotechnology) (protein, UniProt P01580 23-155, looked up)
Interferon gamma: HGTVIESLESLNNYFNSSGIDVEEKSLFLDIWRNWQKDGDMKILQSQIISFYLRLFEVLKDNQAISNNISVIESHLITTFFSNSKAKKDAFMSIAKFEVNNPQVQRQAFNELIRVVHQLLPESSLRKRKRSRC

Experiments:
[1] = system: S. aureus (strains Pig1 and LAC); assay: Effect of zinc on growth and viability of S. aureus; format: cell-based, Staphylococcus aureus; details: 100 μM Zn2SO4, RPMI 1640 with 10% FBS, 24 h
Experimental: To assess whether zinc, at the concentrations used in the inventors' study, adversely affect the growth and viability of S. aureus (strains Pig1 and LAC), bacteria (˜5×10^5 CFU) were incubated with or without 100 μM zinc (Zn2 SO4) in RPMI 1640 with 10% FBS. The assay was performed in triplicate in 96-well plates for 24 h at 37° C. at which time ten-fold serial dilutions were plated on THA for enumeration of CFU.

S. aureus [2] = assay: S. aureus survival assay in BMDM treated with IFN-γ; format: cell-based, mouse; details: C/EBPε−/− BMDM, IFN-γ 48 h before infection, 24 h
Experimental: Macrophages were infected with S. aureus at the specified MOI. […] After 30 min, macrophages were washed three times with pre-warmed media to remove extracellular bacteria. Gentamicin (Invitrogen, Carlsbad, Calif., USA) was then added to each well at a final concentration of 400 μg/mL for 1.5 h. At this time, the concentration of gentamicin in the media was reduced to 100 μg/mL for the remainder of the assay. At 24 h post infection, cells were washed three times with PBS, then 100 μl of 0.02% Triton X-100 in water was added to each well and pipetted vigorously 10× to promote macrophage lysis and release intracellular bacteria. Ten-fold serial dilutions of each cell lysate were immediately plated onto THA, and CFU were enumerated following overnight incubation at 37° C. Data are representative of at least two independent experiments performed in triplicate.
BMDM harvested from WT and C/EBPε^−/− mice were seeded at the required density of 5×10^4 cells per well (100 μl) in 96-well tissue culture plates. Macrophages were then activated with IFN-γ (200 U/mL) for 48 h prior to infection. Activated and control non-activated macrophages were infected with S. aureus at the specified MOI. The macrophage survival assay was then performed as described for U937 macrophages.

S. aureus [3] = assay: Murine skin (s.c.) S. aureus infection with IFN-γ treatment; format: in vivo, mouse; details: C/EBPε−/− mice, 5,000 U i.p. daily
Experimental: S. aureus was pelleted, washed twice and resuspended in PBS (Mediatech, Manassas, Va., USA) mixed 1:1 with sterile Cytodex beads (GE Healthcare, Pasadena, Calif., USA) at the specified inoculum, following an established protocol for generating localized S. aureus and S. pyogenes subcutaneous (s.c.) infection^41,42. One hundred microliters of two separate inocula, as specified, were administered by s.c. injection into the respective two flanks of each mouse. Injections were performed with careful visualization of the needle to assure that they were not intramuscular. Serial dilutions were prepared and plated to confirm the actual inocula used.
Baseline weights of mice were recorded prior to infection and daily thereafter until sacrifice. Lesions were measured with a caliper, daily throughout infection. Lesions were defined by darkened areas of dermonecrosis. The inventors' method to measure lesion size has been previously reported^43. Briefly, skin lesions were quantified by multiplying the length and width of the lesion. Irregularly-shaped lesions were broken down into smaller symmetrical pieces, and each piece was measured by the same method.
Following euthanization of mice on the specified day, infected skin lesion tissue was aseptically excised, and thoroughly homogenized and mixed in 1 mL of PBS as previously shown^43. Ten-fold serial dilutions of the homogenates were plated on THA for CFU determination. The spleen and both kidneys were aseptically removed from each animal and processed in the same way. When required, the appropriate homogenized suspensions (skin lesions) were centrifuged at 15,000 g for 10 min and supernatants stored at −80° C. for subsequent analysis by ELISA.
Mice were infected with S. aureus by s.c. injection as already described. One hundred microliters of two separate specified inocula were injected into the respective two flanks of WT and C/EBPε^−/− mice.
C/EBPε^−/− mice were treated with recombinant murine IFN-γ (Shenandoah Biotechnology, Warwick, Pa., USA) 48 h prior to infection. IFN-γ was administered i.p. (0.5 mL in PBS) at a dose of 5,000 U. Control WT and C/EBPε^−/− mice received equal amounts of PBS. The respective mice continued to receive IFN-γ or PBS every 24 h until they were euthanized.
Mouse weight and lesion size were recorded daily as already described. At day 4 p.i., mice were euthanized, and the CFU from skin lesions, spleen, and kidneys were determined.

Row | Molecule | effect on viability and growth of S. aureus [1] | effect on viability and growth of S. aureus ([1]; listed as Zinc) | S. aureus CFU recovered from / killing by macrophages (S. aureus [2]) | CFU in skin lesions, spleen and kidneys vs PBS (S. aureus [3]) | area of dermonecrosis (S. aureus [3]) | changes in body weight vs PBS-treated WT control (S. aureus [3]) | overall lesion size / area vs PBS (S. aureus [3])
1 | O=S(=O)([O-])[O-].[Zn+2] [zinc] | no effect; also recorded: does not have direct anti-staphylococcal activity | no effect | – | – | – | – | –
2 | B1 | – | – | reduced the number of S. aureus CFU; also recorded: improved killing of S. aureus | lower numbers of bacteria in the skin lesions; also recorded: significantly lower CFU | dramatically ameliorated | similar | no effect on the overall lesion area; also recorded: no effect on overall lesion size
